Test: soluble on expression in E. coli; label from the status in PepcDB or PDB records

Soluble on expression in E. coli, not soluble:
MGSDKIHHHHHHMADKKRLDQLVLERGLVESREKAKVLILAGKVLVNGERVTKASKLVPEDANVELLEEPKYVSRGGYKLESAFESFKIDVSGKVACDIGASTGGFTDFLLQRGAKKVYAVDVGYGQLHWKLRNDPRVVVMEKVNARYLNPDDLGEKVDVVTCDVSFISLKKIIPAISRILKNIGDAVLLVKPQFEAPRKFVKKGIVKDPGVHLEVLEEIRKSLIENGFVVKGCCFSKIKGTEGNIEYFFWVKKEGENAEIDLRKIVEEAWRFFGERER
MGSDKIHHHHHHMADRIEFVKNYSDLSTNKGFQFEFYCDRCGSGYRTRFKPSITGTVTGVLDTAGSLLGGLFSSAADVSERVRSASWEKSHDDAFEDACNELKPDFIQCPRCSSWVCRQKCWNKKKGLCKECAPDLGVEMAAAQASKSVEEIWAHAAMAEEDKKLGLENWRENVRASCPECEAPLASNAKFCPECGAKLKAAQFCPSCGAKVNPGSKFCAECGEKF
MGSDKIHHHHHHMAEFFPEIPKIQFEGKESTNPLAFRFYDPNEVIDGKPLKDHLKFSVAFWHTFVNEGRDPFGDPTAERPWNRFSDPMDKAFARVDALFEFCEKLNIEYFCFHDRDIAPEGKTLRETNKILDKVVERIKERMKDSNVKLLWGTANLFSHPRYMHGAATTCSADVFAYAAAQVKKALEITKELGGEGYVFWGGREGYETLLNTDLGLELENLARFLRMAVEYAKKIGFTGQFLIEPKPKEPTKHQYDFDVATAYAFLKNHGLDEYFKFNIEANHATLAGHTFQHELRMARILGKLGSIDANQGDLLLGWDTDQFPTNIYDTTLAMYEVIKAGGFTKGGLNFDAKVRRASYKVEDLFIGHIAGMDTFALGFKIAYKLAKDGVFDKFIEEKYRSFKEGIGKEIVEGKTDFEKLEEYIIDKEDIELPSGKQEYLESLLNSYIVKTIAELR
MGSDKIHHHHHHMAEKKEFVVGIDLGTTNSVIAWMKPDGTVEVIPNAEGSRVTPSVVAFTKSGEILVGEPAKRQMILNPERTIKSIKRKMGTDYKVRIDDKEYTPQEISAFILKKLKNDAEAYLGGEIKKAVITCPAYFNDAQRQATKEAGIIAGLEVLRIINEPTAAALAYGLDKAGKEEKVLVYDLGGGTFDVSILEIGEGVIEVIATAGNNHLGGDDFDQRLIDWMAEEFKKQHGIDLREDRQALQRLRDAAEKAKIELSTKMETDVSLPFIAVSPSGQPLHLEMRITRSLFESLTRDLVEMTRGPIEQALNDAKLSPQDIDEIILVGGMTRVPMVQRFIKEFFGKEPNKSVNPDEAVAIGAAIQAAILAGTEGAKGRDIVLVDVTPLTLGIEVKGGLFEPIIPRNTKIPVRKSKIFTTVEDGQTEVEIRVYQGERPIARENIFLGSFKLVGIPPAPRGVPQIEVTFDIDSDGIVHVSAKDLGSGKEQSMVVTGRHKLSEDEIKRMIEDAKRYEEQDKRLKEEIELKNRADDLAYSVEKTLKEHGDKIPADLKSRLEDMIRELRDAINRNDIPKVKMLFDDLQKESMKIGEYLYKSATGGETSNQ
MGSDKIHHHHHHMAEQPLIGKTILTTRAAGQSSPFAAQLRAAGAAVIEMPTLEIGPPSSWLPLDEAIAAIADFDWLILASANAVEAVQQRLAAQQKSWSDVPCAIAVVGQKTAQVLAAQGGKADYIPPEFIAESLVEHFPQPVAGQRLLFPRVETGGREQITQALQSQGAIVVEVPAYESRCPSQIPDDALIALRQAHLNLISFTSSKTVRNFCQLMASNLGVDWSARISGVAIASIGPQTSITCQELLGRVEVEAQEYTLDGLLLAIEQWARQTT
MGSDKIHHHHHHMAFKNLKELSFEKSNYIKPKRFAYESNGRLCTWDFIESKDSVSVLLYHKELESFIFVRQFRIPLWYHQMHDKDYVKDDDMGYTIELCSGLVDKKLSLEEIAKEECIEELGYAPKNLEKIGDFYTGFGSGVSKQSFYFVEVDEKDKISSGGGVDDEEIEAVYVKVQDFEKKCKNMIRTPLLDFAYMWFLKEKWGKLKII
MGSDKIHHHHHHMAFRGWKKLPIRIETGEMVEAIAPVIVSASRATDIPAFHAEWFMTRLRAGYVQWCNPFNARQTQYVSFRKTRAVIFWSKNPAPLLPHLSELDAIGINYSFQFTLNDYEAEGLEPYVLPLAKRIETFRRLASHIGPERVVWRFDPLVLTGRLTADMLLERIGRLAEALGGQTRKLVISFADIECYRAVRLRLSRMGAGAREFAPEEMDEFAARLVERNKDWGLELSACAEDSELAGIAKSRCIDGHVLASCFGDDAELMEFLGGSTLFPGDAPVSVALKHQGQRKACGCIVSKDIGVYGTCQHGCRYCYACR
MGSDKIHHHHHHMAGEPRLGRTGPRVSRVGLGLWQFGSPMWGGKALSADVLARGLSIAVEEGINLLDTAEVYGMGSSERMLGEALKRLNAREDFVIVSKVAGFRSTAGDIVKGARGIAGRLSSAPDVILHHWPPPVYSRLCSVVRGLEQAVNEGLASYYGFSNYGEDLLGDALSCTRRLEPVADQILYNLAYRTPEQRLIPLLHQHGMTPIAWSPLAKGALAGFKGEPTRAQAGDPVFRTALEDTGLQEVLESVARRLGASKASVALAWVAYKGAVPIVGWRRPERVREAAAAARLKLSEEDVALLDEASKRYVTLWGSSYSPPGLRRIRLIPGALQRLAIRLWGGI
MGSDKIHHHHHHMAGVTAPLLGLQKKSLREQALSALRTAITSGELEPGRHLVETELSDMLQISRGTLREALRQLEQEGLLSAGPRGRLSVRHLDAKEIRDIYSVRAALESLAARTLCELPDRQHVIGSLRAAIGAMDAAAKGSLEDRIESDLEFHRTLCRLTGNETLLHSWESLEGSIRMSIMFAGLEKGVSNMSVDRHHDIVAAIETGDGSLARKTIREHMDTAADNLVA
MGSDKIHHHHHHMAHPPQIRIPATYLRGGTSKGVFFRLEDLPESCRVPGEARDRLFMRVIGSPDPYAAHIDGMGGATSSTSKCVILSKSSQPGHDVDYLYGQVSIDKPFVDWSGNCGNLSTGAGAFALHAGLVDPARIPEDGICEVRIWQANIGKTIIAHVPVSGGQVQETGDFELDGVTFPAAEIVLEFLDPSDDGEDGGAIFPTGNLVDDLEVPGVGTFKATMINAGIPTVFVNAEEIGYRGTELREEINGDPQQLARFERIRVAGALRMGLIKTPEEAATRQHTPKIAFVAPPRDYRTASGKLVAAGDIDLLVRALSMGKLHHAMMGTAAVAIGTAAAIPGTLVNLAAGGGERSAVRFGHPSGTLRVGAEASQANGEWTVTKAIMSRSARILMEGWVRVPGDAF
MGSDKIHHHHHHMAHTITIVGLGNYGIDDLPLGIYKFLKTQDKVYARTLDHPVIESLQDELTFQSFDHVYEAHDQFEDVYNDIVAQLVEAANEKDIVYAVPGHPRVAETTTVKLLALAKDNTDIDVKVLGGKSFIDDVFEAVNVDPNDGFTLLDATSLQEVTLNVRTHTLITQVYSAMVAANLKITLMERYPDDYPVQIVTGARSDGADNVVTCPLYELDHDENAFNNLTSVFVPKIITSTYLYHDFDFATEVIDTLVDEDKGCPWDKVQTHETLKRYLLEETFELFEAIDNEDDWHMIEELGDILLQVLLHTSIGKKEGYIDIKEVITSLNAKMIRRHPHIFGDANAETIDDLKEIWSKAKDAEGKQPRVKFEKVFAEHFLNLYEKTKDKSFDEASLKQWLEKGESNT
MGSDKIHHHHHHMAIAIDFGTSNTVIARWNPVTQQPETITLPGLSIQQSLNPPLIPSLVYVEDANQAKILIGQQVRDRGLDLKGDTRFFRSFKRGIGADIQGFLPELDGQIVTFEQVGQWFLTEVIQQLAPLEGGLDSLVLTVPVDSFEAYRYWLGQVCQALPVEQVRMLDEPTAAALGYGLADQEILLVVDFGGGTLDLSLVQLNKSAQTNTKPVGFLLKWGNKSLAEESKQKTKTARVLAKAGQNLGGTDIDNWLVDYFTKTQGLAVSPLTTRLAERIKIQLSTQNQASEVYFDDENFESYELELNRDTLESILKEHSFFEQLDDAMANLLQQARRQGIELADINAVLLVGGTVQLPAVQTWVKQYFQPDKIRCEKPFEAIAQGALQLSQGVEIKDFLYHSYGVRYWDRRNQRHSWHSIIKAGQGYPMTQPVELVLGASLENQPSIELILGELGTETGGTEVYFDGDRLITRRLDTGVTSVKPLNDKEGARTIAQLTPPGFPGSDRIKILFQVDEQRFLRITVEDLLTNDTLLENQLVAQLS
MGSDKIHHHHHHMAISERDIEHIFERLRSGVVPERGLEAFAVGIDKQRTEIHRQFQLAANSEGVFKFLRGGYGCGKTFMSRLAILDAQAQGFATSFVVVSDNDLHFYKFDDVYRKVVQELGTSSCPRGALSDIIDRWIARVEDALIAGGADENSDEFDTLVQQRIEEELASLTGGKAPEDMARVLRAIFTFKQKGEIAEASALLSWLAGSENVAATAKKAAGIKGDIASRDALDYLHGILEIVKAAGYKGLVIVIDEVETVLRMRHDSRGKSLNGIRQICDAADRYRGLLWIYTGTPEFFDTKRGVAGLEPLHDRIQFLTLAGFANPRQPQLELKPFDARRLKEVALKLREIFPTANRTGIVNKVTFEFIERLVAKVTAGFKGDVGVVPRQFLRQFVNILDLASENDEFDPMSAEGFEPTDLNEVELLIREGRTYFDEDPADIQGYAAVEF
MGSDKIHHHHHHMAKFKIEIDSETCLGYKECGLCVSACEESIIVPDEKTGKVKVDKTREINCDGLGACLDVCPVGALKITSESGFSCGGHSGNPCPGSAVKSFNRSEQRSEMLQNKETESELLNWPVQLHLLNPNASYFKNADLIIAADCVPFAYPDFHNNLLKGKVLAIACPKLDDTKDYMLKIRQIVEKNNIKNVTVAIMTVPCCSGLYSLVNRALDGLDVNITKKVISLDGKLMD
MGSDKIHHHHHHMAKGSKGFIVSIMGPVVDVKFPEEELPDIYNALEVVNPQTGQKVVLEVEQLIGDGVVRTVAMDSTDGLTKGLEVVDTGAPITAPVGKEVLGRILNVIGEPVDEAGEIKAKERWPIHRPAPELVEQSTEIEILETGIKVIDLLAPFPKGGKIGFFGGAGVGKTVLVMELIRNIAIEHKGFSVFAGVGERTREGNELWLEMQESGVLGNTVLVFGQMNEPPGARFRVALTALTIAEYFRDVEGRDVLLFIDNIFRFVQAGSEVSALLGRMPSAVGYQPTLATDMGELQERITSTRRGSITSVQAIYVPADDITDPAPATTFAHLDATVVLSRRIAELGLYPAVDPLDSSSKILDPAIVGREHYEVARGVQEVLQRYKDLQDIIAILGVEELSPEDKLVVHRARRIQRFLSQPFHVAERFTGRPGRYVPIEETIRGFKEILDGKLDDVPEQAFLMAGNIDEVKERAKEMRS
MGSDKIHHHHHHMAKKHRKESLDALFREKVLLEMLKIAGVGMWTYSTETGRLRYIGFADTIHRHDELQYVDPADYLKLMNGEDLQTVTQFMADIHAGRPPQEGIRYKIHGNGEDFYLENHVVTCQPLGNGFYYLKGYVKNITAQVMEANRLCIEKERTEQADRLRSAFFAHVSRELRGPLNRIEELASQMVHAESVEEREECFHRIQENRRMAMKIADALHAVSQLPVSTYEPYHSPMQLCLIYRDLLMENGYSHNPEDGEQEENANFLSLLFS
MGSDKIHHHHHHMAKLDDATLAQLFTEARSHNGWNPEPLPESVLRELYALTKFGPTAANGSPARFYFVTSAEAKERLAKLSSGSNGPKIMQAPCTVIIGYDLDFPQTLPKLFPHAPGAKDWFNDPVAKEWCALRNSSLQGGYFMIGARALGLDVGPMSGFDNAAVDAEFFAGTNIKSNFIVSIGHGTDEGLFPRNPRLDFDEAAKIL

— the DeepSol protein solubility set
